# Source: US6403561
# Test system: non-sulphated CCK-8 (Asp-Tyr-Met-Gly-Trp-Met-Asp-Phe-NH2)
# Sequence of membrane-bound tripeptidylpeptidase II purified from rat brain (cerebral cortex) membranes (chain, as listed by the source): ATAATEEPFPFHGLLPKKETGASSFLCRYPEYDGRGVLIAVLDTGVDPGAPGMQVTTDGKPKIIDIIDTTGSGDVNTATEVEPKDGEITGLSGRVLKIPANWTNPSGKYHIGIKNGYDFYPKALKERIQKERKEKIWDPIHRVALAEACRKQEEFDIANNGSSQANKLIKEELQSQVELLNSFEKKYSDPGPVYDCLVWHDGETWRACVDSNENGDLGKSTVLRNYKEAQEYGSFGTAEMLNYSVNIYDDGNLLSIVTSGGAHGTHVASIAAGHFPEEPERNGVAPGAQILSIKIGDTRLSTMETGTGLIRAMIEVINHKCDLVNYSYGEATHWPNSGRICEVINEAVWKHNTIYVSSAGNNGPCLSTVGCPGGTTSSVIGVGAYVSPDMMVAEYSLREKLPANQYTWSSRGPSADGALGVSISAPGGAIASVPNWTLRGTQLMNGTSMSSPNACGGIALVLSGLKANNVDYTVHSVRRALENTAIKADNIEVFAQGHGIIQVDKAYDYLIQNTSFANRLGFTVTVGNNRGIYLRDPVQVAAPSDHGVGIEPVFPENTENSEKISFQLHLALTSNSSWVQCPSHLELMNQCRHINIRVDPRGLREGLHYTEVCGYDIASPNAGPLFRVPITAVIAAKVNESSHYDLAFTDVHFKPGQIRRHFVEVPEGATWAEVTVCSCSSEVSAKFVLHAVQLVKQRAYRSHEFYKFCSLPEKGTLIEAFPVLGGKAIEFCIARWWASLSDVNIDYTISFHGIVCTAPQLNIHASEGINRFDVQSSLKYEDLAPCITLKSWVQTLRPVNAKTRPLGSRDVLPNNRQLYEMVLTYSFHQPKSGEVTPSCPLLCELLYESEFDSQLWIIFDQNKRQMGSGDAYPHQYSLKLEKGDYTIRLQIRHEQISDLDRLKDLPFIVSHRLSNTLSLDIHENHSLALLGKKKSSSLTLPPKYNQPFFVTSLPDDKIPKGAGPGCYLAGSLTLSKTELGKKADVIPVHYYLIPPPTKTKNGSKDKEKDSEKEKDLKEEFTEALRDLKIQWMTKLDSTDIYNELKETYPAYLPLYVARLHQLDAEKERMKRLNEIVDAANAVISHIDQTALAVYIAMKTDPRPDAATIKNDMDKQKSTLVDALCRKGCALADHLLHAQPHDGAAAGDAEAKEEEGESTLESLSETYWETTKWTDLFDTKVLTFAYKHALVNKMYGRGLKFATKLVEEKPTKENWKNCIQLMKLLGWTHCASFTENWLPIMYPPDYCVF
substance,measurement,value
membrane-bound tripeptidylpeptidase II purified from rat brain (cerebral cortex) membranes,hydrolysis of CCK-8 (products CCK-5 and Gly-Trp-Met measured fluorimetrically after HPLC),only one enzyme is responsible for the two cleavages of the molecule CCK-8
